Molecular target: H4 conjugated to SUMO (UniProt P62799)
Assay: refolding of the histone complex, analysed by SDS-PAGE

stoichiometry N: 1 H3K23ac:H4
Substance: H3K23ac (H3 with acetylation at K23) (from UniProt P84233 1-136) (natural protein)
